In patent US20260250363A1 (AP BIOSCIENCES, published 2026):
Read-outs that look alike come from different tables or passages of the source.

Key:
[1] = target: T1, SARS-CoV-2 B.1.617.2 Spike Protein (R&D, Cat. #10878-CV) (SARS-CoV-2, UniProt P0DTC2 16-1211); test: direct ELISA on coated spike
[2] = target: T2, SARS-CoV-2 B.1.1.529 Spike Protein (Omicron) (SARS-CoV-2, UniProt P0DTC2 16-1211)
[3] = target: T1, SARS-CoV-2 B.1.617.2 Spike Protein …; test: competition ELISA: blocks biotin-ACE2 binding to coated spike
[4] = target: T3, SARS-CoV-2 Spike Protein, wild type (R&D, Cat. #10549-CV) (SARS-CoV-2, UniProt P0DTC2 16-1211); test: as above
[5] = target: T3, SARS-CoV-2 Spike Protein, wild type …; test: direct ELISA on coated spike
[6] = target: T4, SARS-CoV-2 AY.1 Spike Protein (R&D, Cat. #10922-CV) (SARS-CoV-2, UniProt P0DTC2 16-1211); test: direct ELISA on coated spike
[7] = target: T4, SARS-CoV-2 AY.1 Spike Protein (R&D, …); test: BLI (ForteBio), mAb on AHC sensor, spike in solution
[8] = target: T1, SARS-CoV-2 B.1.617.2 Spike Protein …; test: as above
[9] = target: T5, SARS-CoV-2 C.37 Spike His Protein (R&D, Cat. #10887-CV) (SARS-CoV-2, UniProt P0DTC2 16-1211); test: as above
[10] = target: T2, SARS-CoV-2 B.1.1.529 Spike Protein …; test: as above
[11] = target: T3, SARS-CoV-2 Spike Protein, wild type …; test: as above
[12] = target: T5, SARS-CoV-2 C.37 Spike His Protein (R&D, …); test: direct ELISA on coated spike
[13] = target: T4, SARS-CoV-2 AY.1 Spike Protein (R&D, …); test: competition ELISA: blocks biotin-ACE2 binding to coated spike
[14] = target: T2, SARS-CoV-2 B.1.1.529 Spike Protein …; remark: listed apart in the source
[15] = target: T5, SARS-CoV-2 C.37 Spike His Protein (R&D, …); test: competition ELISA: blocks biotin-ACE2 binding to coated spike
[16] = target: SARS-CoV-2 AY.1 Spike Protein (R&D, Cat. #10922-CV) (SARS-CoV-2, UniProt P0DTC2 16-1211)
[17] = target: SARS-CoV-2 C.37 Spike His Protein (R&D, Cat. #10887-CV) (SARS-CoV-2, UniProt P0DTC2 16-1211); test: direct ELISA on coated spike; no plateau within the range shown
[18] = target: SARS-CoV-2 Spike Protein, wild type (R&D, Cat. #10549-CV) (SARS-CoV-2, UniProt P0DTC2 16-1211); test: as above
[19] = target: T3, SARS-CoV-2 Spike Protein, wild type …; test: competition ELISA: blocks biotin-ACE2 binding to coated spike; remark: listed apart in the source
[20] = target: T5, SARS-CoV-2 C.37 Spike His Protein (R&D, …); test: as above; remark: listed apart in the source
[21] = target: T2, SARS-CoV-2 B.1.1.529 Spike Protein …; test: as above
[22] = target: T4, SARS-CoV-2 AY.1 Spike Protein (R&D, …); test: as above; remark: listed apart in the source
[23] = target: T1, SARS-CoV-2 B.1.617.2 Spike Protein …; test: as above; remark: listed apart in the source
[24] = target: T6, SARS-CoV-2 Spike Trimer, His Tag (BA.4/Omicron) (MALS verified) (AcroBiosystems, SPN-C5229) (SARS-CoV-2, UniProt P0DTC2 16-1213); test: as above
[25] = target: T2, SARS-CoV-2 B.1.1.529 Spike Protein …; test: as above; remark: listed apart in the source
[26] = target: T7, SARS-CoV-2 Spike Trimer, His Tag (BA.5/Omicron) (MALS verified) (AcroBiosystems, SPN-C522e) (SARS-CoV-2, UniProt P0DTC2 16-1213); test: as above
[27] = target: T8, Recombinant SARS-CoV-2 BA.2 Spike (GCN4-IZ) His Protein, CF (R&D, 11109-CV) (SARS-CoV-2, UniProt P0DTC2 16-1211); test: as above
[28] = target: T7, SARS-CoV-2 Spike Trimer, His Tag …; test: BLI (ForteBio), mAb on AHC sensor, spike in solution
[29] = target: T6, SARS-CoV-2 Spike Trimer, His Tag …; test: as above
[30] = target: T8, Recombinant SARS-CoV-2 BA.2 Spike …; test: as above

B1: anti-SARS-CoV-2 antibody clone R4-11 (antibody, V domains shown)
VH: QVQLVQSGAEVKKPGSSVKVSCKASGGAFSSYAISWVRQAPGQGLEWMGRIIPILGIANYAQKFQGRVTITADKSTSTAYMELSSLRSEDTAVYYCAGGSGYYYWGQGTTVTVSS
VL: QSVLTQPPSVSEAPGQRVTISCSGSSSNIANNAVNWYQQLPGQAPKLLIFYDDLLPSWVSDRFSGSKSGTSASLAISGLQSEDEADYYCAAWDDSLNGPVFGGGTKLTVLR
EC50 [1]: 0.0559 nM
EC50 [2]: 100 nM
IC50 [3]: 1.14 nM
IC50 [4]: 3.99 nM
EC50 [5]: 0.0622 nM
EC50 [6]: 0.0905 nM
Kd [7]: 2.29 nM
Kd [8]: 1.53 nM
Kd [9]: 1.23 nM
Kd [10]: 7.93 nM
Kd [11]: 4.05 nM
EC50 [12]: 0.0677 nM
IC50 [13]: 0.787 nM
IC50 [14]: 24 nM
IC50 [15]: 1.8 nM

B2: R4-7 (antibody, V domains shown)
VH: QVQLQESGGGLVQPGGSLRLSCAVSGMTLDYYAIAWFRQAPGKEREGVSRISSSDGSTSYADSVKGRFTISRDNAKNTVYLQMNSLKPEDTGVYYCAASPLTYYSGTYYFPGEYDYWGQGTQVTVSS
EC50 [16]: 252000 nM
EC50 [17]: 13.3 nM
EC50 [18]: 20.4 nM

B3: Anti-SARS-CoV-2 #R4-11#R4-1a-10 scFv bsAb (bispecific antibody)
heavy: not shown
light: QSVLTQPPSVSEAPGQRVTISCSGSSSNIANNAVNWYQQLPGQAPKLLIFYDDLLPSWVSDRFSGSKSGTSASLAISGLQSEDEADYYCAAWDDSLNGPVFGGGTKLTVLRQPVAAPSVTLFPPSSEELQANKATLVCLISDFYPGAVTVAWKADSSPVKAGVETTTPSKQSNNKYAASSYLSLTPEQWKSHKSYSCQVTHEGSTVEKTVAPAECS
IC50 [19]: 2.73 nM
IC50 [20]: 1.97 nM
IC50 [21]: 2.32 nM
IC50 [22]: 0.715 nM
IC50 [23]: 1.45 nM

B4: Anti-SARS-CoV-2 #R4-1a-10-#R4-11 scFv bsAb (bispecific antibody)
heavy: not shown
light: QSVLTQPSSVSAAPWQRVTISCSGSDSNIGNNPVNWYQHVPGKAPTLLIYYDNFLASKISDRFSGSKSGTSASLAISGLQSDDEADYYCASWDDSLNGVVFGGGTKLTVLRQPKAAPSVTLFPPSSEELQANKATLVCLISDFYPGAVTVAWKADSSPVKAGVETTTPSKQSNNKYAASSYLSLTPEQWKSHRSYSCQVTHEGSTVEKTVAPTECS
IC50 [19]: 0.857 nM
IC50 [20]: 0.897 nM
IC50 [21]: 1.06 nM
IC50 [22]: 0.349 nM
IC50 [23]: 0.563 nM

B5: Anti-SARS-CoV-2 #R3-1a-1-# R4-1a-10 scFv bsAb (bispecific antibody)
heavy: not shown
light: NFMLTQPHSVSESPGKTVTISCTRSSGSIASKYVQWYQQRPGNSPTTVIYEDDQRPSGVPDRFSASIDSSANTASLTISGLKPEDEADYYCQSYDDNTAVFGGGTHLTVLGQPKAAPSVTLFPPSSEELQANKATLVCLVSDFYPGAVTVAWKADGSPVKVGVETTKPSKQSNNKYAASSYLSLTPEQWKSHRSYSCRVTHEGSTVEKTVAPAECS
IC50 [24]: 3.51 nM
IC50 [25]: 1.83 nM
IC50 [26]: 4.97 nM
IC50 [27]: 0.803 nM

B6: R3-1a-1/R4-1a-51 scFv (bispecific antibody)
heavy chain with C-terminal scFv: not shown
light chain: B5 light
IC50 [24]: 7.74 nM
IC50 [25]: 5.85 nM
IC50 [26]: 11.1 nM
IC50 [27]: 3.31 nM

B7: Anti-SARS-CoV-2 #R4-21-# R4-1a-10 scFv bsAb (bispecific antibody)
heavy: not shown
light: QSALTQPASVSGSPGQSITISCTGTSSDVGGYNYVSWYQQHPGKAPKLIIYDVRNRPSGVSNRFSGSKSGNTASLTISGLQAEDEADYYCGSYTSSSTLGFGGGTKLTVLGQPKAAPSVTLFPPSSEELQANKATLVCLISDFYPGAVTVAWKADSSPVKAGVETTTPSKQSNNKYAASSYLSLTPEQWKSHKSYSCQVTHEGSTVEKTVAPTECS
IC50 [24]: 1.04 nM
IC50 [25]: 1.08 nM
IC50 [26]: 1.37 nM
IC50 [27]: 0.246 nM

B8: Anti-SARS-CoV-2 #R4-21-# R4-1a-51 scFv bsAb (bispecific antibody)
heavy: not shown
light: B7 light
IC50 [24]: 1.14 nM
IC50 [25]: 1.01 nM
IC50 [26]: 1.65 nM
IC50 [27]: 0.354 nM

B9: anti-SARS-CoV-2 antibody clone R4-21 (antibody, V domains shown)
VH: QVQLVQSGAEVKKPGESLKISCKGSGYSFTSYWIGWVRQMPGKGLEWMGIIYPGDSDTRYSPSFQGQVTISADKSISTAYLQWSSLKASDTAMYYCATQTPYYDSSDYYLGDAFDIWGQGTMVTVSS
VL: QSALTQPASVSGSPGQSITISCTGTSSDVGGYNYVSWYQQHPGKAPKLIIYDVRNRPSGVSNRFSGSKSGNTASLTISGLQAEDEADYYCGSYTSSSTLGFGGGTKLTVLG
Kd [28]: 2.63 nM
Kd [29]: 1.62 nM
Kd [30]: 2.32 nM
Kd [10]: 2.58 nM
